Numbering of substitutions follows the chain as printed. No end group written: not given here.
Legend:
[1] = target: T1, GLP-1R H212A (Homo sapiens)
T1 chain: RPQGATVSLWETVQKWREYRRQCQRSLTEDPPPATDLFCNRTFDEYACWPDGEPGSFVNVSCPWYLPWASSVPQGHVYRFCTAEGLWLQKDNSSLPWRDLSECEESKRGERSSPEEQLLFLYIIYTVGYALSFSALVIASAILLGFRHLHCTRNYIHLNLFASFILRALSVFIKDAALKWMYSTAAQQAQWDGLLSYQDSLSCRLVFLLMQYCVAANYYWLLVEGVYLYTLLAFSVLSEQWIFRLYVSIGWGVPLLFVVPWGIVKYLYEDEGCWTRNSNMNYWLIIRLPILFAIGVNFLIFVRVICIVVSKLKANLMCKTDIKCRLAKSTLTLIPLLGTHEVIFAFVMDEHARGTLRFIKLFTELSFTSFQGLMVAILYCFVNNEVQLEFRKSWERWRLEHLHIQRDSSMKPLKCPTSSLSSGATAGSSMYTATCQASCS

[2] = target: T2, GLP-1R Q211A (Homo sapiens)
T2 chain: T1 chain with Q188A, A189H

[3] = target: T3, GLP-1R M204A (Homo sapiens)
T3 chain: T1 chain with M181A, A189H

[4] = target: T4, GLP-1R Y205A (Homo sapiens)
T4 chain: T1 chain with Y182A, A189H

[5] = target: T5, GLP-1R S206A (Homo sapiens)
T5 chain: T1 chain with S183A, A189H

[6] = target: T6, GLP-1R L201A (Homo sapiens)
T6 chain: T1 chain with L178A, A189H

B1: oxyntomodulin (peptide)
peptide: HSQGTFTSDYSKYLDSRRAQDFVQWLMNTKRNRNNIA
B1 showed an IC50 [1] of 12.9 nM, an IC50 [2] of 19.5 nM and an IC50 [3] of 741 nM. For the same binder, the IC50 [4] was 36.3 nM, the IC50 [5] was 16.6 nM and the IC50 [6] was 107 nM.

B2: glucagon-like peptide-1 (peptide)
chain: HAEGTFTSDVSSYLEGQAAKEFIAWLVKGR
modifications: not fully specified (C-terminus)
B2 showed an IC50 [1] of 1.23 nM, an IC50 [2] of 2.34 nM and an IC50 [3] of 79.4 nM. The IC50 [4] was 3.09 nM, the IC50 [5] was 4.9 nM and the IC50 [6] was 38.9 nM.

Source: article PMC8748714 (2022)
